Here are results for five molecules from patent publication US20160362464A1 (University of California, published 2016).

To fix the notation:
T1: GST-DAPLE-CT (human, UniProt Q9P219 1650-2028)
T1 construct: also called GST-DAPLE-CT WT; not shown: glutathione S-transferase tag of the pGEX-4T vector
T1 sequence: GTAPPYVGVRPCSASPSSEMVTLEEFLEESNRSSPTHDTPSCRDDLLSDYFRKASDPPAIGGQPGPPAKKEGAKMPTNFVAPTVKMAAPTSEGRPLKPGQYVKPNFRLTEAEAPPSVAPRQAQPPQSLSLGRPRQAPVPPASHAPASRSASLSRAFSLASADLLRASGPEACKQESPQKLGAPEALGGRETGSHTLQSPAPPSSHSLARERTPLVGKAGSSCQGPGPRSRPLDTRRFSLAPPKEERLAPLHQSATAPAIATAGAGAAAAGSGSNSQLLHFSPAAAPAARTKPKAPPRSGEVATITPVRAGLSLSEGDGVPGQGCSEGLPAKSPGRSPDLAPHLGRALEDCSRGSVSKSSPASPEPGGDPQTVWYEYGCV

B1: GST-GIV (aa 1671-1755) (other, UniProt Q3V6T2 1671-1755, looked up)
chain: IKTGSPGSEVVTLQQFLEESNKLTSVQIKSSSQENLLDEVMKSLSVSSDFLGKDKPVSCGLARSVSGKTPGDFYDRRTTKPEFLR
notes: range 1671-1755; also called GST-GIV CT 1671-1755 aa; not shown: glutathione S-transferase tag
B2: His-DAPLE-CT (aa 1650-2028) (other)
chain: T1 sequence
notes: Recombinant, purified from E. coli; also called His-DAPLE-CT WT; DAPLE-CT WT; not shown: His tag and vector residues of pET28b
B3: GST-Gao (other, rat, UniProt P59215 1-354, looked up)
chain: MGCTLSAEERAALERSKAIEKNLKEDGISAAKDVKLLLLGAGESGKSTIVKQMKIIHEDGFSGEDVKQYKPVVYSNTIQSLAAIVRAMDTLGVEYGDKERKADSKMVCDVVSRMEDTEPFSAELLSAMMRLWGDSGIQECFNRSREYQLNDSAKYYLDSLDRIGAADYQPTEQDILRTRVKTTGIVETHFTFKNLHFRLFDVGGQRSERKKWIHCFEDVTAIIFCVALSGYDQVLHEDETTNRMHESLMLFDSICNNKFFIDTSIILFLNKKDLFGEKIKKSPLTICFPEYPGSNTYEDAAAYIQTQFESKNRSPNKEIYCHMTCATDTNNIQVVFDAVTDIIIANNLRGCGLY
notes: also called Gαo; not shown: glutathione S-transferase tag of the pGEX-4T-1 vector
B4: His-Gαi3 (GDP-loaded) (other, rat, UniProt P08753 1-354, looked up)
chain: MGCTLSAEDKAAVERSKMIDRNLREDGEKAAKEVKLLLLGAGESGKSTIVKQMKIIHEDGYSEDECKQYKVVVYSNTIQSIIAIIRAMGRLKIDFGEAARADDARQLFVLAGSAEEGVMTSELAGVIKRLWRDGGVQACFSRSREYQLNDSASYYLNDLDRISQTNYIPTQQDVLRTRVKTTGIVETHFTFKELYFKMFDVGGQRSERKKWIHCFEGVTAIIFCVALSDYDLVLAEDEEMNRMHESMKLFDSICNNKWFTDTSIILFLNKKDLFEEKIKRSPLTICYPEYTGSNTYEEAAAYIQCQFEDLNRRKDTKEVYTHFTCATDTKNVQFVFDAVTDVIIKNNLKECGLY
notes: also called recombinant His-Gαi3; not shown: His tag
B5: Gαi3-FLAG (other, rat, UniProt P08753 1-354, looked up)
chain: B4 chain
notes: Expressed in HEK293 or Cos7 cells; immunoprecipitated with anti-FLAG mAb; also called FLAG-Gαi3; not shown: FLAG tag

Assay [1] concerns the target B4. Nature of the assay: GST pulldown with 0.01-3 µM His-Gαi3, band intensities fitted to a one-site binding curve (FIG. 1F).
Assay [2] addresses B4. As to the kind of experiment: cell-based or functional assay.
The target of assay [3] is T2, GST-Gαi3 preloaded with GDP (inactive) (rat, UniProt P08753 1-354).
T2 construct: Immobilized on glutathione beads; Same polypeptide as m11, other nucleotide state; also called GST-Gαi3 WT; not shown: glutathione S-transferase tag of the pGEX-4T-1 vector
As to the kind of experiment: displacement of Gβγ from preformed GST-Gαi3·Gβγ complexes, immunoblot fitted to a single-site competition curve (FIG. 3C). From the text:
FIGS. 3A-3J. DAPLE's GBA motif triggers the release of ‘free’ Gβγ subunits, which in turn enhance Rac1 and PI3K-Akt signaling. (A) DAPLE's GBA motif and Gβγ subunits are predicted to dock onto an overlapping binding site on Gαi. Binding areas (in red) for DAPLE (left) or Gβγ (right) on Gαi (solid grey) were extracted from a homology-based model of DAPLE-Gαi3 and the crystal structure of the Gαi1·Gβγ complex (PBD: 1GG2), respectively. (B, C) DAPLE displaces Gβγ subunits from Gαi3 via its GEF motif. GST-Gαi3·Gβγ preformed complexes immobilized on glutathione beads were incubated with increasing concentrations of His-DAPLE-CT WT or F1675A (FA). Bound proteins were analyzed by immunoblotting (B) and Gβγ binding data fitted to a single-site competition curve (C). Mean±S.E.M. of 3 independent experiments. […] Control (shLuc) or two clones of DAPLE-depleted HeLa cell lines (shDAPLE 1 and 2) (described in FIGS. 10A & 10B) were incubated in 2% serum media (D) or starved and treated (+) or not (β) with Wnt5a ([…]) for 5 min (E) and analyzed for Rac1 activation by pulldown assays using GST-PBD. […] DAPLE-depleted (shDAPLE 1) HeLa cells transiently transfected with myc-DAPLE-WT or FA were starved and stimulated with Wnt5a and analyzed for Rac1 activation as in E. (G, H) DAPLE's GBA motif is required for activation of PI3K-Akt signaling in HeLa cells, as determined by phosphorylation of Akt at 5473. […]

Assay [4] addresses B2. As to the kind of experiment: GST pulldown, purified proteins, inactive or active conformations (FIG. 1H). The protocol:
Equal aliquots of lysates of HEK293 cells expressing Gαi3-FLAG were incubated with anti-FLAG mAb or control IgG and protein G beads. Immune complexes were analyzed for DAPLE and Gαi3 (FLAG) by immunoblotting (IB). Gβ was monitored as positive Gαi3-binding control. […] Resin-bound proteins were eluted, separated by SDS-PAGE and analyzed by Ponceau S-staining and immunoblotting (IB) with the indicated antibodies. No binding to GST alone was detected. […] No binding of myc-DAPLE or Gβ to GST alone was detected. […] Insert, Purified GST-DAPLE-CT and GST-GIV (aa 1671-1755, containing the GBA motif) immobilized on glutathione-agarose beads were incubated with increasing amounts (0.01-3 μM) of purified His-Gαi3 (GDP-loaded) and binding analyzed by immunoblotting as described in (D). No binding to GST alone was detected at the highest His-Gαi3 concentration tested. Graph, Gαi3 binding was quantified by measuring band intensities and data fitted to a single-site binding hyperbola (DAPLE=BLUE, GIV=RED) to determine the equilibrium dissociation constants (Kd). Mean±S.E.M of 4 independent experiments. (G) DAPLE binds to all three Gαi subunits. […] (H) DAPLE selectively binds to Gαi, but not Gao.

Assay [5] addresses T1, GST-DAPLE-CT. Nature of the assay: GST pulldown with 0.01-3 µM His-Gαi3, band intensities fitted to a one-site binding curve (FIG. 1F).
The target of assay [6] is T3, GST-FZD7-CT (UniProt P08515 1-218 = GST).
T3 construct: Immobilized on glutathione beads directly from bacterial lysates; also called GST-FZD7R-CT; Fzl17-CT
T3 sequence (P08515 whole entry): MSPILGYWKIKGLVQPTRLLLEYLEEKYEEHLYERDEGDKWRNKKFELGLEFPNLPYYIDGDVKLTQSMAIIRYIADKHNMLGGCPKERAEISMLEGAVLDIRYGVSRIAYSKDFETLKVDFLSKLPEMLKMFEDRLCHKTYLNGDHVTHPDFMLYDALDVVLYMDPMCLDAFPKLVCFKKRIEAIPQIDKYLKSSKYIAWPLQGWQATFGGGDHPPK
Nature of the assay: GST-FZD7-CT pulldown of His-Gαi3 with His-DAPLE-CT WT against His-Gαi3 alone (FIG. 4E).

Assay [7] addresses T4, myc-DAPLE full length F1675A (human, UniProt Q9P219 1-2028).
T4 construct: Expressed in Cos7 cells; used as cell lysate; also called myc-DAPLE FA; DAPLE-FA; not shown: N-terminal myc tag of myc-pcDNA 3.1 (+)
As to the kind of experiment: co-immunoprecipitation with anti-FLAG mAb from Cos7 cells (FIG. 2E).

Turning to B1, the affinity in assay [1], expressed as Kd, was 240 nM.

Consider B2, for which, in assay [2], the “EC50 of the acceleration of Gαi3 steady-state GTPase activity” value is 250 nM and the “rate of steady-state GTP hydrolysis of His-Gαi3” value is about 3 fold. This molecule returned an IC50 in assay [3] of 160 nM.

Consider B3, for which, in assay [4], the binding result is reported as “no binding”.

In assay [5], B4 registered a Kd of 110 nM. In assay [6], the “fold increase of binding in the presence of DAPLE-CT WT” value was about 5 fold.

As to B5, the binding result in assay [7] was “no binding”.
